Results published in patent US20260125457A1 (Janssen / Centocor, published 2026).
Each block holds one binder with its values, some of them ahead of it.

Legend:
[1] = molecular target: T1, wild-type calreticulin (CALRwt) expressed with MPL in engineered cancer cells (UniProt P27797 18-417, limits assumed); experiment: flow cytometry, ELF-153 and OCI-M2 MPL CALRwt cells
T1 construct: whole, on cells; also called OCI-M2 MPL CALRwt
T1 sequence (looked up): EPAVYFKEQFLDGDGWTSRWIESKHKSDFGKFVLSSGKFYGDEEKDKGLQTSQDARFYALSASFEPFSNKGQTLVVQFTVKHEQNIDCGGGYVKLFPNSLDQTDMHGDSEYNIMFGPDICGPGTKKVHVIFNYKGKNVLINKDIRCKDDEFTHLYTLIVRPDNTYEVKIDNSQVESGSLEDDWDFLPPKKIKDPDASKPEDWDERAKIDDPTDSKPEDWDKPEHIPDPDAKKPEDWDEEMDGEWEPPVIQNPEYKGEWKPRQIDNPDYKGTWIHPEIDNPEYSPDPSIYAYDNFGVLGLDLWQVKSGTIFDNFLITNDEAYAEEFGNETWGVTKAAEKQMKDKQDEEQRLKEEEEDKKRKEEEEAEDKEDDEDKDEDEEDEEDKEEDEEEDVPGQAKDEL

[2] = molecular target: T2, CD3 on primary human pan T cells (human, UniProt P07766 23-207); experiment: flow cytometry on pan CD3 T cells, 1 h at 37 C, AF647 secondary antibody, Geometric Mean
T2 construct: whole, on cells; also called CD3e; CD3ε
T2 sequence (P07766 23-207): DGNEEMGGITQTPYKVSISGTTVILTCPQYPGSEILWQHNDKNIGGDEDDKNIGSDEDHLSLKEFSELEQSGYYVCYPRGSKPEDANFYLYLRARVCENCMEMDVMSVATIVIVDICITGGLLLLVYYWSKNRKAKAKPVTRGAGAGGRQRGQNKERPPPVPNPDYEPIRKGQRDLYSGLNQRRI
Description: FIG. 22 depicts binding of different CALRmutxCD3 bispecific antibodies to pan CD3 T cells. Flow cytometry was used to evaluate CALRmutxCD3 binding to pan CD3 T cells in vitro, by 1 hour 37° C. incubation, with subsequent incubation with secondary AF647-labeled antibody. Geometric mean fluorescence intensity of AF647 was measured to determine antibody binding.
Flow cytometry was used to evaluate the CD3 arm binding of CALRmutxCD3 antibodies listed in Table 21 to CD3+ pan T cells from healthy human donor. CALRmutxCD3 were tested after 1 hour 37° C. incubation with pan T cells.

[3] = molecular target: T3, CALRdel52 (mutant calreticulin, 52 base pair deletion, Type 1) expressed with MPL on engineered cancer cells (UniProt P27797 18-417); experiment: flow cytometry on OCI-M2 MPL CALRdel52 cells, 1 h at 37 C, AF647 secondary antibody, Geometric Mean
T3 construct: whole, on cells; On the cell surface in complex with MPL; also called OCI-M2 MPL CALRdel52
T3 sequence (looked up): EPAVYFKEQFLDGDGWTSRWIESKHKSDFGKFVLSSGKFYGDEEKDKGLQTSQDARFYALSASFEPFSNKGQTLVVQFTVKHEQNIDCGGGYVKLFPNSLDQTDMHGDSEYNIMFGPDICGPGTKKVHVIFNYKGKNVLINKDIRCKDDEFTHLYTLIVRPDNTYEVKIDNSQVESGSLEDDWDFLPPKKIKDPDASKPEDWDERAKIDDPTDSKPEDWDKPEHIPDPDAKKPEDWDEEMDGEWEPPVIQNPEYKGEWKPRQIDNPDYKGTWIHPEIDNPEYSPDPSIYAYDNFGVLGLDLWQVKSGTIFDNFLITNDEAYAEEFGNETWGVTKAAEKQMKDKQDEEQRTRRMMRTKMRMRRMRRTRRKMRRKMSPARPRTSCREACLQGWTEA
Description: FIGS. 21A-21F depict binding of different CALRmutxCD3 bispecific antibodies to CALRmut-negative or CALRmut-positive cells. Flow cytometry was used to evaluate CALRmutxCD3 binding to CALRmut-negative and CALRmut-positive cancer cells in vitro. CALRmutxCD3 antibodies were tested on a panel of cell lines, engineered to express MPL and CALRmut, after 1 hour 37° C. incubation, with subsequent incubation with secondary AF647-labeled antibody. Geometric mean fluorescence intensity of AF647 was measured to determine antibody binding.

[4] = molecular target: T1, wild-type calreticulin (CALRwt) …; experiment: flow cytometry, OCI-M2 and ELF-153 MPL CALRwt cells
[5] = molecular target: T4, CALRins5 (mutant calreticulin, 5 base pair insertion, Type 2) expressed with MPL on engineered cancer cells (UniProt P27797 18-417); experiment: flow cytometry, OCI-M2 and ELF-153 MPL CALRins5 cells
T4 construct: whole, on cells; On the cell surface in complex with MPL; also called OCI-M2 MPL CALRins5
T4 sequence (looked up): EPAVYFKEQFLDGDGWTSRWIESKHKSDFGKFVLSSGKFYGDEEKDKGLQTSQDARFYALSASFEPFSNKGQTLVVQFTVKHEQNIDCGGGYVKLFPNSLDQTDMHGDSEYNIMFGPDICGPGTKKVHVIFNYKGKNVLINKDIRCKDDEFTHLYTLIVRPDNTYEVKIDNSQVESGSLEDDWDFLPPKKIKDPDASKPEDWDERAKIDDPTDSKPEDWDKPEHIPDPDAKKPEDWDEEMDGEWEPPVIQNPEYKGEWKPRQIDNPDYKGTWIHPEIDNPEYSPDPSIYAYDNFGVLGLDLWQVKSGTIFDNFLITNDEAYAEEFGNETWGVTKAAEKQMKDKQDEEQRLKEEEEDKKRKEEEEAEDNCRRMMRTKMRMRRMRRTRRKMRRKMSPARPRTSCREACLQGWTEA

[6] = molecular target: T3, CALRdel52 (mutant calreticulin, 52 base …); experiment: flow cytometry, OCI-M2 and ELF-153 MPL CALRdel52 cells

binding result [1]: no binding
EC50 (read off the curve) [2]: ~5 nM
EC50 (read off the curve) [3]: ~2 nM
B1: C3CRB127 CALRmut x CD3 bispecific antibody (bispecific antibody, human IgG1, kappa, L234A L235A)
heavy 1: QVQLVQSGAEVKKPGASVKVSCKASGFSLSSYAMSWVRQAPGQGLEWMGVIDSGGTTYYAQKFQGRVTMTRDTSTSTVYMELSSLRSEDTAVYYCARESYAGYDYYGHPIPYGMEPWGQGTLVTVSSASTKGPSVFPLAPSSKSTSGGTAALGCLVKDYFPEPVTVSWNSGALTSGVHTFPAVLQSSGLYSLSSVVTVPSSSLGTQTYICNVNHKPSNTKVDKKVEPKSCGGGGSGGGGSEVQLVESGGGLVKPGGSLRLSCAASGFTFSRYNMNWVRQAPGCGLEWVSSISTSSNYIYYADSVKGRFTFSRDNAKNSLDLQMSGLRAEDTAIYYCTRGWGPFDYWGQGTLVTVSSGGGSGGSGGCPPCGGSGGDIQMTQSPSSLSASVGDRVTITCRARQSIGTAIHWYQQKPGKAPKLLIKYASESISGVPSRFSGSGSGTDFTLTISSLQPEDFATYYCQQSGSWPYTFGCGTKLEIKEPKSSDKTHTCPPCPAPEAAGGPSVFLFPPKPKDTLMISRTPEVTCVVVSVSHEDPEVKFNWYVDGVEVHNAKTKPREEQYNSTYRVVSVLTVLHQDWLNGKEYKCKVSNKALPAPIEKTISKAKGQPREPQVYTLPPSREEMTKNQVSLWCLVKGFYPSDIAVEWESNGQPENNYKTTPPVLDSDGSFFLYSKLTVDKSRWQQGNVFSCSVMHEALHNHYTQKSLSLSPGK
heavy 2: QVQLVQSGAEVKKPGASVKVSCKASGFSLSSYAMSWVRQAPGQGLEWMGVIDSGGTTYYAQKFQGRVTMTRDTSTSTVYMELSSLRSEDTAVYYCARESYAGYDYYGHPIPYGMEPWGQGTLVTVSSASTKGPSVFPLAPSSKSTSGGTAALGCLVKDYFPEPVTVSWNSGALTSGVHTFPAVLQSSGLYSLSSVVTVPSSSLGTQTYICNVNHKPSNTKVDKKVEPKSCDKTHTCPPCPAPEAAGGPSVFLFPPKPKDTLMISRTPEVTCVVVSVSHEDPEVKFNWYVDGVEVHNAKTKPREEQYNSTYRVVSVLTVLHQDWLNGKEYKCKVSNKALPAPIEKTISKAKGQPREPQVYTLPPSREEMTKNQVSLSCAVKGFYPSDIAVEWESNGQPENNYKTTPPVLDSDGSFFLVSKLTVDKSRWQQGNVFSCSVMHEALHNRFTQKSLSLSPGK
light: DIQMTQSPSTLSASVGDRVTITCQASQSLYNNKNLAWYQQKPGKAPKLLIYYASALASGVPSRFSGSGSGTEFTLTISSLQPDDFATYYCQGEFNCNSADCNSFGGGTKVEIKRTVAAPSVFIFPPSDEQLKSGTASVVCLLNNFYPREAKVQWKVDNALQSGNSQESVTEQDSKDSTYSLSSTLTLSKADYEKHKVYACEVTHQGLSSPVTKSFNRGEC
notes: Chain A heavy: CALRB1114 Fab heavy part, CD3 spFv (HL), Fc; Chain B heavy: CALRB1114

binding result [4]: no binding
binding result [5]: binds
binding result [6]: binds
B2: C3CRB136 CALRmut x CD3 bispecific antibody (bispecific antibody, human IgG1, kappa, L234A L235A)
scFv: DIQMTQSPSSLSASVGDRVTITCRARQSIGTAIHWYQQKPGCAPKLLIKYASESISGVPSRFSGSGSGTDFTLTISSLQPEDFATYYCQQSGSWPYTFGQGTKLEIKGGGSGGSGGCPPCGGSGGEVQLVESGGGLVKPGGSLRLSCAASGFTFSRYNMNWVRQAPGKGLEWVSSISTSSNYIYYADSVKGRFTFSRDNAKNSLDLQMSGLRAEDTAIYYCTRGWGPFDYWGCGTLVTVSSEPKSSDKTHTCPPCPAPEAAGGPSVFLFPPKPKDTLMISRTPEVTCVVVSVSHEDPEVKFNWYVDGVEVHNAKTKPREEQYNSTYRVVSVLTVLHQDWLNGKEYKCKVSNKALPAPIEKTISKAKGQPREPQVYTLPPSREEMTKNQVSLWCLVKGFYPSDIAVEWESNGQPENNYKTTPPVLDSDGSFFLYSKLTVDKSRWQQGNVFSCSVMHEALHNHYTQKSLSLSPGK
heavy: QVQLVQSGAEVKKPGASVKVSCKASGFSLSSYAMSWVRQAPGQGLEWMGVIDSGGTTYYAQKFQGRVTMTRDTSTSTVYMELSSLRSEDTAVYYCARESYAGYDYYGHPIPYGMEPWGQGTLVTVSSASTKGPSVFPLAPSSKSTSGGTAALGCLVKDYFPEPVTVSWNSGALTSGVHTFPAVLQSSGLYSLSSVVTVPSSSLGTQTYICNVNHKPSNTKVDKKVEPKSCGGGGSGGGGSQVQLVQSGAEVKKPGASVKVSCKASGFSLSSYAMSWVRQAPGQGLEWMGVIDSGGTTYYAQKFQGRVTMTRDTSTSTVYMELSSLRSEDTAVYYCARESYAGYDYYGHPIPYGMEPWGQGTLVTVSSASTKGPSVFPLAPSSKSTSGGTAALGCLVKDYFPEPVTVSWNSGALTSGVHTFPAVLQSSGLYSLSSVVTVPSSSLGTQTYICNVNHKPSNTKVDKKVEPKSCDKTHTCPPCPAPEAAGGPSVFLFPPKPKDTLMISRTPEVTCVVVSVSHEDPEVKFNWYVDGVEVHNAKTKPREEQYNSTYRVVSVLTVLHQDWLNGKEYKCKVSNKALPAPIEKTISKAKGQPREPQVYTLPPSREEMTKNQVSLSCAVKGFYPSDIAVEWESNGQPENNYKTTPPVLDSDGSFFLVSKLTVDKSRWQQGNVFSCSVMHEALHNRFTQKSLSLSPGK
light: B1 light
notes: Chain B heavy: two CALRB1114 Fab heavy parts in tandem, Fc
